Results taken from PMC12122834.

Tests used:
Assay in all cases: EMSA
DinG = target: T1, DinG (Escherichia coli, UniProt P27296 1-716)
T1 sequence: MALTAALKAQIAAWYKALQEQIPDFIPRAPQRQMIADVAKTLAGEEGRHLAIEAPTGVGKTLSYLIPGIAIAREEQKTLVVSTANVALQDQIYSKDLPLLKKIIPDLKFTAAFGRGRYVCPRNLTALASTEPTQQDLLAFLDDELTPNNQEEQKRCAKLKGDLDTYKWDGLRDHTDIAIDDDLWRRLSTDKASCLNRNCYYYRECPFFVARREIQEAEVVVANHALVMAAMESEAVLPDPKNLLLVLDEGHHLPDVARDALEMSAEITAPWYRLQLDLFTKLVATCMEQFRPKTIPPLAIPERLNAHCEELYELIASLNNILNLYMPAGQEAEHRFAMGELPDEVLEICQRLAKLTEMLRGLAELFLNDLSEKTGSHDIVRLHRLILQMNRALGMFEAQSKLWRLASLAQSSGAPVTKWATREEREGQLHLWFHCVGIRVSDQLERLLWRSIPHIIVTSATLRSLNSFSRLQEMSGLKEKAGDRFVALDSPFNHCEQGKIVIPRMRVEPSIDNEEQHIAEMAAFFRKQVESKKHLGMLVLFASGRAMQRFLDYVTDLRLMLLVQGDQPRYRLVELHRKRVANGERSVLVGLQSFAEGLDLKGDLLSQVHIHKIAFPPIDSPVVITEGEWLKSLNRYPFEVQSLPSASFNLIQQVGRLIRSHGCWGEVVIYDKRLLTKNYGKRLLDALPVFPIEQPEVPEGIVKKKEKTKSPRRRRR

[1] = target: YoaA;chi R128A (HolC R128A) (Escherichia coli;Escherichia coli, UniProt P76257;P28905 1-636;1-147, |R128A)
SSB deltaC1 = SSB deltaC1 (Escherichia coli, UniProt P0AGE0 2-177, del178-178)
SSB = SSB (Escherichia coli, UniProt P0AGE0 2-178)
YoaA;chi (HolC) = YoaA;chi (HolC) (Escherichia coli;Escherichia coli, UniProt P76257;P28905 1-636;1-147, |)
YoaA;chi (HolC);SSB = YoaA;chi (HolC);SSB (Escherichia coli;Escherichia …, UniProt P76257;P28905;P0AGE0 1-636;1-147;2-178, ||)
DinG;SSB = DinG;SSB (Escherichia coli;Escherichia coli, UniProt P27296;P0AGE0 1-716;2-178, |)

Measured: binding result

B1: ssT65 (S21) (ssDNA)
DNA: TTTTTTTTTTTTTTTTTTTTTTTTTTTTTTTTTTTTTTTTTTTTTTTTTTTTTTTTTTTTTTTTT
binds: all assays above
